Source: US20020142457A1, “Cell having the potentiality of differentiation into cardiomyocytes” (priority 1999, published 2002)
Ends that are not written are not given here.

How the values were obtained:
[1] = test system: mouse bone marrow-derived pluripotent stem cells (BMSC); assay: Differentiation of BMSC into myotubes, phase-contrast microscope; assay type: cell-based; conditions: 5-aza-C 3 μM in all dishes, cytokine 10 ng/ml, four weeks after addition of 5-aza-C
Experimental: The mouse bone marrow-derived pluripotent stem cells (BMSC) having the potential to differentiate into cardiomyocytes were plated into 60-mm culture dishes and 60 mm fibronectin-coated dishes (Becton Dickinson) at a density of 2×10^4 cells/ml and cultured at 33° C. in a 5% CO2-incubator.
On the next day, 5-aza-C was added to each culture medium in a final concentration of 3 μM, followed by culturing with the following 3 different treatments, with addition of PDGF (culture dish A), both PDGF and retinoic acid (culture dish B) or without addition of any compound (culture dish C) (final concentration: PDGF, 10 ng/ml; retinoic acid, 10^−9 M).
On the next day, the medium was replaced with a fresh medium to remove 5-aza-C therefrom. Then, PDGF was added to the culture dish A until the final concentration of PDGF came to be 10 ng/ml, while PDGF and retinoic acid were added to the culture dish B until the final concentrations of PDGF and retinoic acid came to be 10 ng/ml and 10^−9 M, respectively. Two and four days thereafter, the medium was replaced and the PDGF or retinoic acid was further added.
As a result, about 30% of the cells in the culture dish containing 5-aza-C alone differentiated into myotubes, while about 40% of the cells in the culture dish containing PDGF and about 50% of the cells in the culture dish containing PDGF together with retinoic acid differentiated into myotubes. In the three groups of the fibronectin-coated dishes, the ratio of the cells differentiated into myotubes was about 10% higher than in the three groups of the culture dishes.
(§1) RNAs were collected from the myotubes thus obtained. And genes expressed in the myotubes were analyzed with quantitative PCR analysis using the synthetic oligonucleotides represented by SEQ ID NOS:71 to 78. As a result, PDGF or retinoic acid promoted the expression of MyoD and fTnI genes relating to a skeletal muscle but not cTnI or ANP specifically relating to a myocardium. Next, mouse bone marrow-derived pluripotent stem cells (BMSC) having the potential to differentiate into cardiomyocytes were inoculated in a 60-mm culture dish at a density of 2×10^4 cells/ml and cultured using an incubator at 33° C. under 5% of CO2.
On the next day, 5-aza-C was added to the liquid culture medium to give a final concentration of 3 μM. Furthermore, five treatments differing from each other were performed by adding FGF-8 to give a final concentration of 10 ng/ml (culture dish D); adding ET-1 to give a final concentration of 10 ng/ml (culture dish E); adding a midkine to give a final concentration of 10 ng/ml (Culture dish F); adding BMP4 to give a final concentration of 10 ng/ml (culture dish G); and adding no compound (culture dish H), followed by culturing.
On the next day, the medium was replaced by a fresh medium to eliminate 5-aza-C therefrom. Then, FGF-8 was added to the culture dish D to give a final concentration of 10 ng/ml; ET-1 was added to the culture dish E to give a final concentration of 10 ng/ml; the midkine was added to the culture dish F to give a final concentration of 10 ng/ml; and BMP4 was added to the culture dish G to give a final concentration of 10 ng/ml, followed by culturing. Two and four days thereafter, the medium was replaced and the FGF-8, ET-1, midkine or BMP4 was further added.
As a result, about 30% of the cells in the culture dish containing 5-aza-C alone differentiated into myotubes, while about 50% of the cells in the culture dishes containing FGF-8, ET-1, midkine or BMP4 differentiated into myotubes respectively.

[2] = test system: mouse bone marrow-derived pluripotent stem cells (BMSC); assay: Quantitative PCR of genes expressed in myotubes from BMSC; assay type: cell-based; conditions: with 5-aza-C 3 μM, cytokine 10 ng/ml
Experimental: as §1
RNAs were collected from the myotubes thus obtained. And genes expressed in the myotubes were analyzed with quantitative PCR using the synthetic oligonucleotides represented by SEQ ID NOS:71 to 78. As a result, the FGF-8, ET-1, midkine and BMP4 each individually promoted the expression of cTnI and ANP gene which are myocardium-specific genes.

[3] = test system: bone marrow cell (BMSC-MesP1); assay: Quantitative PCR of genes expressed in myotube-like cells from BMSC-MesP1; assay type: cell-based, mouse; conditions: BMSC-MesP1, 5-aza-C 3 μM, cytokine 10 ng/ml
Experimental: Next, RNA was recovered from the thus obtained myotube-like cells, and genes expressing in the myotube-like cells were analyzed by quantitative PCR using the synthetic oligonucleotides shown in SEQ ID NOS:71 to 78. As a result, expression of ANP as a gene specific for a myocardium was accelerated by the forced expression of MesP1.

[4] = test system: Nkx2.5/Csx and GATA4 co-forced expressing bone marrow cells (BMSC-Nkx2.5-GATA4); assay: Differentiation of BMSC-Nkx2.5-GATA4 with cytokines, phase-contrast microscope; assay type: cell-based, mouse; conditions: cytokine 10 ng/ml, four weeks; for cells differentiated into myotubes: BMSC-Nkx2.5-GATA4, 5-aza-C 3 μM in all dishes; for beating cardiomyocytes: BMSC-Nkx2.5-GATA4, 5-aza-C 3 μM
Experimental: The Nkx2.5/Csx and GATA4 co-forced expressing bone marrow cells (BMSC-Nkx2.5-GATA4) having the potential to differentiate into cardiomyocytes were plated into a 60-mm culture dish at a density of 2×10^4 cells/ml and cultured at 33° C. in a 5% CO2-incubator.
On the next day, 5-aza-C was added to the culture medium to give a final concentration of 3 μM. Furthermore, 5 treatments differing from each other were carried out by adding FGF-8 to give a final concentration of 10 ng/ml (culture dish I); adding ET-1 to give a final concentration of 10 ng/ml (culture dish J); adding midkine to give a final concentration of 10 ng/ml (culture dish K); adding BMP4 to give a final concentration of 10 ng/ml (culture dish L); and adding nothing (culture dish M), followed by culturing.
On the next day, the medium was replaced with a fresh medium to eliminate 5-aza-C. Then, FGF-8 was added to the culture dish I to give a final concentration of 10 ng/ml; ET-1 was added to the culture dish J to give a final concentration of 10 ng/ml; midkine was added to the culture dish K to give a final concentration of 10 ng/ml; and BMP4 was added to the culture dish L to give a final concentration of 10 ng/ml, followed by culturing. Two and four days thereafter, furthermore, the medium was replaced, and the FGF-8, ET-1, midkine or BMP4 was added.
As a result, about 30% of the cells in the culture dish containing 5-aza-C alone were converted into myotubes, while about 50% of the cells in the culture dishes containing FGF-8, ET-1, midkine or BMP4 differentiated into myotubes respectively. On the other hand, the addition of FGF-8, ET-1, midkine or BMP4 caused no increase in beating cardiomyocytes.

Molecule: ET-1: endothelin 1, cytokine (CSCSSLMDKECVYFCHLDIIW; ends and bridges not checked; cysteine pairing not given here; UniProt P05305 53-73, looked up)
- cells differentiated into myotubes [1]: about 50%
- expression of cTnI and ANP gene (myocardium-specific genes) [2]: promoted
- expression of ANP accelerated by the forced expression of MesP1 [3]: did not further accelerate
- cells differentiated into myotubes [4]: about 50%
- beating cardiomyocytes [4]: no increase

B1: BMP4: bone morphogenic protein 4, cytokine (protein, UniProt P12644 293-408, looked up)
Bone morphogenetic protein 4: SPKHHSQRARKKNKNCRRHSLYVDFSDVGWNDWIVAPPGYQAFYCHGDCPFPLADHLNSTNHAIVQTLVNSVNSSIPKACCVPTELSAISMLYLDEYDKVVLKNYQEMVVEGCGCR
- cells differentiated into myotubes [1]: about 50%
- expression of cTnI and ANP gene (myocardium-specific genes) [2]: promoted
- expression of ANP accelerated by the forced expression of MesP1 [3]: did not further accelerate
- cells differentiated into myotubes [4]: about 50%
- beating cardiomyocytes [4]: no increase

B2: FGF-8: fibroblast growth factor 8, cytokine (protein, UniProt P55075 23-233, looked up)
Fibroblast growth factor 8: QEGPGRGPALGRELASLFRAGREPQGVSQQHVREQSLVTDQLSRRLIRTYQLYSRTSGKHVQVLANKRINAMAEDGDPFAKLIVETDTFGSRVRVRGAETGLYICMNKKGKLIAKSNGKGKDCVFTEIVLENNYTALQNAKYEGWYMAFTRKGRPRKGSKTRQHQREVHFMKRLPRGHHTTEQSLRFEFLNYPPFTRSLRGSQRTWAPEPR
- cells differentiated into myotubes [1]: about 50%
- expression of cTnI and ANP gene (myocardium-specific genes) [2]: promoted
- expression of ANP accelerated by the forced expression of MesP1 [3]: did not further accelerate
- cells differentiated into myotubes [4]: about 50%
- beating cardiomyocytes [4]: no increase

B3: midkine: cytokine, amino acid sequence SEQ ID NO:68 (protein, listed as Homo sapiens)
chain: MQHRGFLLLTLLALLALTSAVAKKKDKVKKGGPGSECAEWAWGPCTPSSKDCGVGFREGTCGAQTQRIRCRVPCNWKKEFGADCKYKFENWGACDGGTGTKVRQGTLKKARYNAQCQETIRVTKPCTPKTKAKAKAKKGKGKD
modifications: CDS (1)..(432)
- cells differentiated into myotubes [1]: about 50%
- expression of cTnI and ANP gene (myocardium-specific genes) [2]: promoted
- expression of ANP accelerated by the forced expression of MesP1 [3]: did not further accelerate
- cells differentiated into myotubes [4]: about 50%
- beating cardiomyocytes [4]: no increase
